± gives the uncertainty stated by the source.

Among the data in the Human Domainome abundance scans (Beltran et al. 2025) are abundance fitness values, retold here.

The chains are these.
B1: Heterogeneous nuclear ribonucleoprotein U-like protein 2, residues 1 to 40; numbered along this chain, Q1KMD3 (parent)
chain: MEVKRLKVTELRSELQRRGLDSRGLKVDLAQRLQEALDAE

The variants in this series derive from B1. The experiment in a line: abundance fitness (aPCA) (normalised: wild type 0, dead -1); higher = more abundant; growth selection in yeast, the domain comes from the species named. The conditions noted are these: Homo sapiens.
In the case of T9Q, the abundance fitness is 0.022 ± 0.068.

Consider T9E, for which the abundance fitness worked out at 0.113 ± 0.053.

Turning to T9S, the abundance fitness was -0.083 ± 0.054.

As for T9C, the abundance fitness is -0.054 ± 0.099.

For the variant T9K, the abundance fitness came to 0.099 ± 0.12.

T9H: the abundance fitness is 0.163 ± 0.13.

Turning to T9I, the abundance fitness was 0.102 ± 0.15.

For the variant T9A, the abundance fitness is -0.04 ± 0.053.

Consider T9M, for which the abundance fitness amounted to 0.074 ± 0.12.

For T9L, the abundance fitness is -0.27 ± 0.067.

For the variant T9G, the abundance fitness was -0.017 ± 0.05.

Turning to T9Y, the abundance fitness is -0.135 ± 0.14.

For the variant T9W, the abundance fitness is -0.103 ± 0.06.

In the case of T9R, the abundance fitness was -0.012 ± 0.049.

T9V: the abundance fitness is -0.153 ± 0.056.

Regarding T9P, the abundance fitness is -0.132 ± 0.066.

Consider L15G, for which the abundance fitness was -0.614 ± 0.049.

Consider L15M, for which the abundance fitness was -0.389 ± 0.069.

As to L15D, the abundance fitness is -0.344 ± 0.069.

In the case of L15W, the abundance fitness is -1.04 ± 0.068.

In the case of L15R, the abundance fitness was -0.815 ± 0.054.

For the variant L15P, the abundance fitness was -0.312 ± 0.075.

L15C: the abundance fitness is -0.25 ± 0.079.

Regarding L15Y, the abundance fitness was -0.582 ± 0.12.

In the case of L15E, the abundance fitness is -0.491 ± 0.054.

Turning to L15T, the abundance fitness is -0.586 ± 0.13.

Consider L15K, for which the abundance fitness is -0.651 ± 0.095.

Consider L15A, for which the abundance fitness is -0.494 ± 0.053.

As to L15Q, the abundance fitness is -0.405 ± 0.073.

Consider L11Q, for which the abundance fitness was -0.448 ± 0.071.

Turning to L11E, the abundance fitness was -0.336 ± 0.056.

As to L11R, the abundance fitness was -0.641 ± 0.049.

Take L11F: the abundance fitness is -0.574 ± 0.16.

In the case of L11S, the abundance fitness is -0.438 ± 0.059.

With L11M, the abundance fitness is -0.055 ± 0.062.

Turning to L11D, the abundance fitness was -0.436 ± 0.085.

On to L11W, for which the abundance fitness is -1.08 ± 0.071.

Consider L11K, for which the abundance fitness was -0.495 ± 0.074.

For the variant L11I, the abundance fitness is -0.109 ± 0.09.

Regarding L11V, the abundance fitness is -0.375 ± 0.059.

For the variant L11H, the abundance fitness is -0.827 ± 0.22.

Turning to L11T, the abundance fitness was -0.436 ± 0.082.

As to L11C, the abundance fitness was -0.988 ± 0.15.

Consider L11A, for which the abundance fitness was -0.458 ± 0.052.

For the variant L11G, the abundance fitness is -0.502 ± 0.046.

As for L11N, the abundance fitness is -0.435 ± 0.091.

Turning to L11P, the abundance fitness was -0.584 ± 0.065.

As for R18H, the abundance fitness was -0.726 ± 0.086.

Turning to R18K, the abundance fitness was -0.356 ± 0.088.

R18M: the abundance fitness is -0.215 ± 0.079.

For R18C, the abundance fitness was -0.668 ± 0.092.

Turning to R18G, the abundance fitness is -0.481 ± 0.052.

As for R18F, the abundance fitness is -0.685 ± 0.13.

With R18W, the abundance fitness is -1.08 ± 0.084.

Consider R18S, for which the abundance fitness is -0.615 ± 0.067.

As to R18I, the abundance fitness is -0.721 ± 0.32.

Regarding R18E, the abundance fitness was -0.571 ± 0.062.

With R18L, the abundance fitness is -0.228 ± 0.063.

R18Y: the abundance fitness was -0.652 ± 0.1.

As to R18P, the abundance fitness is -0.436 ± 0.097.

R18A: the abundance fitness was -0.699 ± 0.066.

With R18Q, the abundance fitness is -0.614 ± 0.099.

R18T: the abundance fitness is -0.627 ± 0.09.

Regarding Q16H, the abundance fitness was -0.178 ± 0.24.

Take Q16N: the abundance fitness was -0.074 ± 0.13.

As to Q16Y, the abundance fitness was -0.405 ± 0.39.

With Q16I, the abundance fitness came to 0.169 ± 0.12.

Regarding Q16A, the abundance fitness was -0.047 ± 0.053.

Turning to Q16G, the abundance fitness was -0.171 ± 0.048.

Take Q16M: the abundance fitness was -0.013 ± 0.079.

In the case of Q16S, the abundance fitness is -0.032 ± 0.071.

With Q16T, the abundance fitness is -0.03 ± 0.061.

On to Q16E, for which the abundance fitness was found to be 0.098 ± 0.055.

On to Q16W, for which the abundance fitness was -0.539 ± 0.058.

Take Q16D: the abundance fitness is -0.079 ± 0.082.

Regarding Q16L, the abundance fitness is -0.09 ± 0.068.

For the variant Q16C, the abundance fitness was -0.299 ± 0.09.

As to Q16V, the abundance fitness is -0.077 ± 0.059.

On to Q16R, for which the abundance fitness is -0.104 ± 0.054.

For G19E, the abundance fitness was -0.396 ± 0.084.

With G19C, the abundance fitness was -0.379 ± 0.11.

Regarding G19A, the abundance fitness is -0.369 ± 0.051.

G19D: the abundance fitness is -0.006 ± 0.12.

Turning to R17S, the abundance fitness was -0.092 ± 0.058.

Take R17M: the abundance fitness was 0.006 ± 0.058.

Turning to R17A, the abundance fitness stood at 0.053 ± 0.053.

Turning to R17C, the abundance fitness is -0.282 ± 0.083.

R17Y: the abundance fitness is -0.455 ± 0.099.

In the case of R17V, the abundance fitness is -0.219 ± 0.053.

For the variant R17H, the abundance fitness was -0.276 ± 0.15.

Regarding R17P, the abundance fitness was -0.432 ± 0.085.

R17D: the abundance fitness is -0.218 ± 0.12.

For the variant R17I, the abundance fitness was -0.173 ± 0.095.

Regarding R17L, the abundance fitness is -0.129 ± 0.054.

Take R17N: the abundance fitness was -0.77 ± 0.44.

Take R17K: the abundance fitness amounted to 0.112 ± 0.06.

As for R17G, the abundance fitness was -0.252 ± 0.056.

For the variant R17E, the abundance fitness was -0.121 ± 0.062.

Turning to R17W, the abundance fitness is -0.521 ± 0.063.

For the variant R17T, the abundance fitness was -0.184 ± 0.07.

For the variant R17Q, the abundance fitness stood at 0.008 ± 0.069.

Regarding V8Q, the abundance fitness is -0.169 ± 0.062.

For the variant V8Y, the abundance fitness was determined as 0.072 ± 0.12.

As for V8T, the abundance fitness is 0.033 ± 0.074.

Turning to V8P, the abundance fitness is -0.298 ± 0.069.

Regarding V8S, the abundance fitness was -0.167 ± 0.057.

For the variant V8R, the abundance fitness is -0.334 ± 0.049.

On to V8W, for which the abundance fitness is -0.435 ± 0.056.

With R12T, the abundance fitness is -0.165 ± 0.065.

For the variant R12A, the abundance fitness was -0.212 ± 0.053.

Turning to R12G, the abundance fitness is -0.507 ± 0.052.

As to R12D, the abundance fitness is -0.403 ± 0.073.

For R12V, the abundance fitness is -0.112 ± 0.06.

For R12L, the abundance fitness was -0.495 ± 0.06.

For R12S, the abundance fitness was -0.332 ± 0.065.

For the variant R12F, the abundance fitness is -0.574 ± 0.12.

With R12W, the abundance fitness is -0.845 ± 0.066.

Regarding R12E, the abundance fitness was -0.147 ± 0.058.

Regarding R12P, the abundance fitness was -0.751 ± 0.081.

Turning to R12H, the abundance fitness is -0.339 ± 0.15.

In the case of R12Q, the abundance fitness turned out to be 0.036 ± 0.07.

Turning to S13T, the abundance fitness amounted to 0.022 ± 0.059.

On to S13A, for which the abundance fitness was determined as 0.153 ± 0.052.

For the variant S13N, the abundance fitness turned out to be 0.016 ± 0.087.

For S13V, the abundance fitness was -0.006 ± 0.056.

As to S13W, the abundance fitness is -0.033 ± 0.055.

S13P: the abundance fitness was -0.385 ± 0.1.

As to S13M, the abundance fitness is -0.058 ± 0.15.

S13K: the abundance fitness came out at 0.085 ± 0.07.

Regarding S13Q, the abundance fitness turned out to be 0.146 ± 0.062.

Consider S13L, for which the abundance fitness amounted to 0.093 ± 0.058.

Take S13E: the abundance fitness turned out to be 0.262 ± 0.066.

Regarding S13I, the abundance fitness was 0.039 ± 0.1.

Consider S13R, for which the abundance fitness stood at 0.055 ± 0.05.

Regarding S13G, the abundance fitness was 0.035 ± 0.052.

In the case of S13Y, the abundance fitness was determined as 0.065 ± 0.1.

In the case of S13F, the abundance fitness is -0.04 ± 0.13.

On to E10P, for which the abundance fitness is -0.758 ± 0.088.

Consider E10W, for which the abundance fitness is -0.599 ± 0.066.

Consider E10Q, for which the abundance fitness was -0.023 ± 0.098.

E10V: the abundance fitness was -0.376 ± 0.059.

E10L: the abundance fitness was -0.641 ± 0.057.

On to E10R, for which the abundance fitness is -0.619 ± 0.051.

On to E10M, for which the abundance fitness is -0.329 ± 0.072.

For E10N, the abundance fitness was -0.726 ± 0.25.

In the case of E10A, the abundance fitness is -0.336 ± 0.056.

For the variant E10Y, the abundance fitness was -0.869 ± 0.21.

With E10S, the abundance fitness was -0.512 ± 0.066.

For the variant E10K, the abundance fitness was -1.08 ± 0.13.

As to E10T, the abundance fitness is -0.305 ± 0.079.

For E14I, the abundance fitness was -0.551 ± 0.1.

As to E14Y, the abundance fitness is -0.634 ± 0.088.

On to E14T, for which the abundance fitness is -0.869 ± 0.077.

With E14S, the abundance fitness is -0.6 ± 0.075.

Take E14R: the abundance fitness is -0.752 ± 0.051.

For the variant E14W, the abundance fitness was -0.942 ± 0.09.

E14M: the abundance fitness is -0.274 ± 0.081.

As for E14K, the abundance fitness was -0.782 ± 0.08.

Turning to E14L, the abundance fitness is -0.311 ± 0.058.

For the variant E14D, the abundance fitness was -0.635 ± 0.075.

Take E14C: the abundance fitness is -0.489 ± 0.069.

Regarding E14V, the abundance fitness is -0.845 ± 0.061.

For E14G, the abundance fitness was -0.743 ± 0.054.

Regarding E14A, the abundance fitness was -0.34 ± 0.053.

Consider E14F, for which the abundance fitness was -0.752 ± 0.14.

Consider E14P, for which the abundance fitness is -0.953 ± 0.11.

Take E14H: the abundance fitness was -0.512 ± 0.11.
